We go through 5 molecules from patent US20040002144A1.

In this experiment the target is casein. In words: cell-based or functional assay.

B1: Ser-type MTG (mutant in which Asp1 has been removed, starts with Ser2), P81453 78-407 (enzyme)
chain: SDDRVTPPAEPLDRMPDPYRPSYGRAETVVNNYIRKWQQVYSHRDGRKQQMTEEQREWLSYGCVGVTWVNSGQYPTNRLAFASFDEDRFKNELKNGRPRSGETRAEFEGRVAKESFDEEKGFQRAREVASVMNRALENAHDESAYLDNLKKELANGNDALRNEDARSPFYSALRNTPSFKERNGGNHDPSRMKAVIYSKHFWSGQDRSSSADKRKYGDPDAFRPAPGTGLVDMSRDRNIPRSPTSPGEGFVNFDYGWFGAQTEADADKTVWTHGNHYHAPNGSLGAMHVYESKFRNWSEGYSDFDRGAYVITFIPKSWNTAPDKVKQGWP
As to B1, the time required for the gelation of casein was 85 min.

B2: S2Y mutant MTG (Ser2 replaced with Tyr, in Met type MTG), P81453 79-407 (enzyme)
chain: MDYDDRVTPPAEPLDRMPDPYRPSYGRAETVVNNYIRKWQQVYSHRDGRKQQMTEEQREWLSYGCVGVTWVNSGQYPTNRLAFASFDEDRFKNELKNGRPRSGETRAEFEGRVAKESFDEEKGFQRAREVASVMNRALENAHDESAYLDNLKKELANGNDALRNEDARSPFYSALRNTPSFKERNGGNHDPSRMKAVIYSKHFWSGQDRSSSADKRKYGDPDAFRPAPGTGLVDMSRDRNIPRSPTSPGEGFVNFDYGWFGAQTEADADKTVWTHGNHYHAPNGSLGAMHVYESKFRNWSEGYSDFDRGAYVITFIPKSWNTAPDKVKQGWP
Molecule B2 came in with a time required for the gelation of casein of 100 min.

B3: S2D mutant MTG (Ser2 replaced with Asp, in Met type MTG), P81453 79-407 (enzyme)
chain: MDDDDRVTPPAEPLDRMPDPYRPSYGRAETVVNNYIRKWQQVYSHRDGRKQQMTEEQREWLSYGCVGVTWVNSGQYPTNRLAFASFDEDRFKNELKNGRPRSGETRAEFEGRVAKESFDEEKGFQRAREVASVMNRALENAHDESAYLDNLKKELANGNDALRNEDARSPFYSALRNTPSFKERNGGNHDPSRMKAVIYSKHFWSGQDRSSSADKRKYGDPDAFRPAPGTGLVDMSRDRNIPRSPTSPGEGFVNFDYGWFGAQTEADADKTVWTHGNHYHAPNGSLGAMHVYESKFRNWSEGYSDFDRGAYVITFIPKSWNTAPDKVKQGWP
As to B3, the time required for the gelation of casein was found to be 95 min.

B4: S2R mutant MTG (Ser2 replaced with Arg, in Met type MTG), P81453 79-407 (enzyme)
chain: MDRDDRVTPPAEPLDRMPDPYRPSYGRAETVVNNYIRKWQQVYSHRDGRKQQMTEEQREWLSYGCVGVTWVNSGQYPTNRLAFASFDEDRFKNELKNGRPRSGETRAEFEGRVAKESFDEEKGFQRAREVASVMNRALENAHDESAYLDNLKKELANGNDALRNEDARSPFYSALRNTPSFKERNGGNHDPSRMKAVIYSKHFWSGQDRSSSADKRKYGDPDAFRPAPGTGLVDMSRDRNIPRSPTSPGEGFVNFDYGWFGAQTEADADKTVWTHGNHYHAPNGSLGAMHVYESKFRNWSEGYSDFDRGAYVITFIPKSWNTAPDKVKQGWP
On to B4, for which the time required for the gelation of casein worked out at 85 min.

B5: transglutaminase derived from Streptoverticillium mobaraense (MTG), wild type, P81453 77-407 (enzyme)
chain: DSDDRVTPPAEPLDRMPDPYRPSYGRAETVVNNYIRKWQQVYSHRDGRKQQMTEEQREWLSYGCVGVTWVNSGQYPTNRLAFASFDEDRFKNELKNGRPRSGETRAEFEGRVAKESFDEEKGFQRAREVASVMNRALENAHDESAYLDNLKKELANGNDALRNEDARSPFYSALRNTPSFKERNGGNHDPSRMKAVIYSKHFWSGQDRSSSADKRKYGDPDAFRPAPGTGLVDMSRDRNIPRSPTSPGEGFVNFDYGWFGAQTEADADKTVWTHGNHYHAPNGSLGAMHVYESKFRNWSEGYSDFDRGAYVITFIPKSWNTAPDKVKQGWP
In the case of B5, the time required for the gelation of casein came out at 90 min.
